Earlier results as cited in paper PMC5067215.

Target: CD74 (Homo sapiens) (UniProt P04233)
Chain of UniProt P04233 (P04233 73-296): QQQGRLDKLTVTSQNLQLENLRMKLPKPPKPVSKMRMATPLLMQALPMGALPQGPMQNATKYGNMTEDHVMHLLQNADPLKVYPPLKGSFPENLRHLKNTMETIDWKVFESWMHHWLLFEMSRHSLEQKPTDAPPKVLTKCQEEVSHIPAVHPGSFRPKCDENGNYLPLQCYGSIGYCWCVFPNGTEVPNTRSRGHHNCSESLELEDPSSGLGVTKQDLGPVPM

**Q.** For D-DT (from UniProt P30046), which Kd is on record?
**A.** The Kd was 5.42 nM.
